Assays:
[1] = target: Seleno-methionine (Se-Met) substituted BioH3 protein (Mycobacterium smegmatis MC2 155) (UniProt A0R6Y0); assay: crystal structure; Se-substituted BioH3, sitting-drop vapor diffusion at 16°C; 20 mM citric acid, 80 mM Bis-Tris propane pH 8.8, 16% PEG3350; SAD; space group P2(1), six molecules per asymmetric unit
[2] = target: the molecule itself; assay: SEC; Superdex 200 Increase column; protein dialyzed in 20 mM Tris-HCl (pH 8.0), 150 mM NaCl and concentrated to ~15 mg/ml

## Seleno-methionine (Se-Met) substituted BioH3 protein (from UniProt A0R6Y0 1-282) (enzyme)
[1]
  stoichiometry N: 2

B1: BioH2 (MSMEG_1352) of M. smegmatis MC2 155, hexa-histidine-tagged (enzyme, Mycobacterium smegmatis MC2 155, UniProt A0QS51 1-305, looked up)
chain: MQTRTGLARAGDADHPIDLFYEDMGDPGDPAVLLIMGLGAQMLMWRTEFCEKLVDQGLRVIRFDNRDVGLSTKLSGQRVDSPLALRMARSFLGKRSPAVYTLEDMADDAAALLDHLEIDRAHIVGGSMGGMIAQVFASQHAARTETLGVIFSSNNQALLPPPGIRQLLSLITGPPADASRDAVLDNAVRLSRLNGSPAYPRSEEEIRAEAAELYDRAYYPAGIARHFAAILGSGSLRHHNERVTAPTVVIHGRADRLMPPSGGRAIANAIRGARMVLIDGMGHELPEPVWDEVIGELKTNFAVVG
notes: BioH2, product of MSMEG_1352 of Mycobacterium smegmatis MC2 155; source: E. coli BL21(DE3), pET28a, purified (nickel column, dialysis)
[2]
  binding result: binds

Reference: PMC9302846, “Three enigmatic BioH isoenzymes are programmed in the early stage of mycobacterial biotin synthesis, an attractive anti-TB drug target” (PLoS Pathogens, 2022)
